According to patent publication JP2015180626A (dated 2015):

Target: RSV Fタンパク質 (RSV A2ウイルス) (respiratory syncytial virus (RSV) A2, UniProt P03420 26-574)
Assay: cell-based or functional assay

Sequence of RSV Fタンパク質 (RSV A2ウイルス) (P03420 26-574): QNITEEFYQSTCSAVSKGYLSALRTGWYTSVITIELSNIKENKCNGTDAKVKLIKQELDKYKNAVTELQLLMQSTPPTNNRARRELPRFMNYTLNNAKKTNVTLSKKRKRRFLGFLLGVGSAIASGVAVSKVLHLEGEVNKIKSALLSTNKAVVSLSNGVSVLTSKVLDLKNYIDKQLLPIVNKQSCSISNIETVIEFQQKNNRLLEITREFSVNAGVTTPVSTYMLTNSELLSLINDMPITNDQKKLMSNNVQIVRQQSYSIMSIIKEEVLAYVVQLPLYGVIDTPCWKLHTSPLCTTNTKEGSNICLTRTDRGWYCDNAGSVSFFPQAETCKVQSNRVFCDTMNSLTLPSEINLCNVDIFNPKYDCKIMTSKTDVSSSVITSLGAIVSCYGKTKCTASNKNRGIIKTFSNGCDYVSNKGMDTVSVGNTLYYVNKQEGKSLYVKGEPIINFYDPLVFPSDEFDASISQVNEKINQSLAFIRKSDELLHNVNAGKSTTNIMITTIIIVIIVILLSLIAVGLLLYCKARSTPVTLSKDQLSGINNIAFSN

B1: AM22 (antibody, V domains shown)
VH: QVQLVQSGAEVKKPGATVKVSCKISGHTLIKLSIHWVRQAPGKGLEWMGGYEGEVDEIFYAQKFQHRLTVIADTATDTVYMELGRLTSDDTAVYFCGTLGVTVTEAGLGIDDYWGQGTLVTVSS
VL: EIVLTQSPGTLSLSPGERATLSCRASQIVSRNHLAWYQQKPGQAPRLLIFGASSRATGIPVRFSGSGSGTDFTLTINGLAPEDFAVYYCLSSDSSIFTFGPGTKVDFK
Q: For B1, which “RSV-A2ウイルスに対する中央値半分最大阻害濃度(IC 50 ) (neutralisation of RSV A2 on HEp2 cells)” value is on record?
A: Its value is 1.15 ng/mL.
